In PMC5701055 (Nature Communications, 2017):

Experiments:
[1] = target: T1, soluble ectodomain of human aminopeptidase N (hAPN), residues 66–967, WT (human, UniProt P15144 66-967); experiment: SPR; conditions: both partners purified
[2] = target: T1, soluble ectodomain of human …; experiment: SPR; conditions: both partners purified; remark: listed apart in the source

T1 sequence (P15144 66-967): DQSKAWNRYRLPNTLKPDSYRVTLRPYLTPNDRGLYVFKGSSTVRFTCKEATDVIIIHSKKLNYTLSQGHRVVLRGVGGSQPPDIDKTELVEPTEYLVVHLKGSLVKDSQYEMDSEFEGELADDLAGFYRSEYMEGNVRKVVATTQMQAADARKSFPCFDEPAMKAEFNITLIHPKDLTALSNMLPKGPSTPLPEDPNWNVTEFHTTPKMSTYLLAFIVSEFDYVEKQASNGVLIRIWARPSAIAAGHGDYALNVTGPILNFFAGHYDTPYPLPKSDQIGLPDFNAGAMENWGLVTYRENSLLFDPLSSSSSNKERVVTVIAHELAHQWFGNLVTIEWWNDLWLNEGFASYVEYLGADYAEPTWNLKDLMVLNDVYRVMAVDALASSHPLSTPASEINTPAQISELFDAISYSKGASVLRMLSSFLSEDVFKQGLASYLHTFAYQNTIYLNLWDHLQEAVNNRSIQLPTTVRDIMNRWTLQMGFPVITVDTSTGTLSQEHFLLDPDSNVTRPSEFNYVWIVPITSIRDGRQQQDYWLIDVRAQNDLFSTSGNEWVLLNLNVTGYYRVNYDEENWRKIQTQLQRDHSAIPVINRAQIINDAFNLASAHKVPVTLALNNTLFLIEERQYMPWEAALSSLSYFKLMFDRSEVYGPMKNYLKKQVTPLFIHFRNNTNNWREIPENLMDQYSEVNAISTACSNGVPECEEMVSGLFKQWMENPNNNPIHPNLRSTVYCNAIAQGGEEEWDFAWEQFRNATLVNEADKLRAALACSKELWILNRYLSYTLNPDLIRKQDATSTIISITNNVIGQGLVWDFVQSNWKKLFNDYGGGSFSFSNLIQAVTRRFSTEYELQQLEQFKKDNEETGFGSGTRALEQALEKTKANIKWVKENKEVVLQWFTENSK

B1: HCoV-229E S-protein receptor-binding domain (RBD), residues 293–435, WT (Class I) (domain or fragment)
chain: LPVYHKHTFIVLYVDFKPQSGGGKCFNCYPAGVNITLANFNETKGPLCVDTSHFTTKYVAVYANVGRWSASINTGNCPFSFGKVNNFVKFGSVCFSLKDIPGGCAMPIVANWAYSKYYTIGSLYVSWSDGDGITGVPQPVEGV
- Kd [1]: 430 nM
- koff [1]: 0.16 s⁻¹
- kon [1]: 360000 M⁻¹ s⁻¹
- Kd [2]: 434 nM
- koff [2]: 0.16 s⁻¹
- kon [2]: 360000 M⁻¹ s⁻¹

B2: HCoV-229E S-protein S1 region, residues 17–560, WT (domain or fragment)
chain: QTTNGLNTSYSVCNGCVGYSENVFAVESGGYIPSDFAFNNWFLLTNTSSVVDGVVRSFQPLLLNCLWSVSGLRFTTGFVYFNGTGRGDCKGFSSDVLSDVIRYNLNFEENLRRGTILFKTSYGVVVFYCTNNTLVSGDAHIPFGTVLGNFYCFVNTTIGNETTSAFVGALPKTVREFVISRTGHFYINGYRYFTLGNVEAVNFNVTTAETTDFCTVALASYADVLVNVSQTSIANIIYCNSVINRLRCDQLSFDVPDGFYSTSPIQSVELPVSIVSLPVYHKHTFIVLYVDFKPQSGGGKCFNCYPAGVNITLANFNETKGPLCVDTSHFTTKYVAVYANVGRWSASINTGNCPFSFGKVNNFVKFGSVCFSLKDIPGGCAMPIVANWAYSKYYTIGSLYVSWSDGDGITGVPQPVEGVSSFMNVTLDKCTKYNIYDVSGVGVIRVSNDTFLNGITYTSTSGNLLGFKDVTKGTIYSITPCNPPDQLVVYQQAVVGAMLSENFTSYGFSNVVELPKFFYASNGTYNCTDAVLTYSSFGVCADGS
- Kd [1]: 1630 nM
- koff [1]: 0.06 s⁻¹
- kon [1]: 39000 M⁻¹ s⁻¹
